Tests used:
[1] = target: T1, cell-bound human DR5 (Colo205 and other human cell lines) (human, UniProt O14763 56-440); experiment: cell-based or functional assay
[2] = target: T1, cell-bound human DR5 (Colo205 and other …); experiment: cell-based or functional assay; remark: listed apart in the source
[3] = target: T2, hGITR (human, UniProt Q9Y5U5); experiment: ELISA, receptor ECD from E. coli lysate on His capture plate;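 further: binding specificity screen across TNF receptor superfamily ectodomains, anti-V5 detection as expression reference, primary antibody incubation 1 h at room temperature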
T2 construct: extracellular domain, E. coli lysate captured on a His capture plate; Target named only on the sheet; the construct is not described in the text
T2 sequence (extracellular domain, looked up): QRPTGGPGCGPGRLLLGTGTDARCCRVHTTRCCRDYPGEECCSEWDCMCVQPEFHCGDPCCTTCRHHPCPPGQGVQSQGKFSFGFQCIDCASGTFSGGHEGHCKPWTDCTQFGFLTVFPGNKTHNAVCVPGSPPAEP

[4] = target: T3, TNFR1 extracellular domain (TNFRSF1A, Leu34-Thr211) (UniProt P19438 34-211); experiment: as above
T3 construct: range 34-211; ECD cloned into pBadThioTopo; E. coli lysate on His capture plates
T3 sequence (looked up): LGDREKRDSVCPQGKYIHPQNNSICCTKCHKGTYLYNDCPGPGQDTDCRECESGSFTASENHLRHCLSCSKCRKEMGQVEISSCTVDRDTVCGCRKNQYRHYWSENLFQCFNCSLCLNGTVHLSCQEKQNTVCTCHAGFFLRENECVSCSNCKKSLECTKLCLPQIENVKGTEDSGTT

[5] = target: T4, TNFR3 extracellular domain (TNFRSF3, Pro30-Thr224) (UniProt P36941 30-224); experiment: as above
T4 construct: range 30-224; ECD cloned into pBadThioTopo; E. coli lysate on His capture plates

[6] = target: T5, OX40 extracellular domain (TNFRSF4, Gly33-Gly212) (UniProt P43489 33-212); experiment: as above
T5 construct: ECD cloned into pBadThioTopo; E. coli lysate on His capture plates
T5 sequence (looked up): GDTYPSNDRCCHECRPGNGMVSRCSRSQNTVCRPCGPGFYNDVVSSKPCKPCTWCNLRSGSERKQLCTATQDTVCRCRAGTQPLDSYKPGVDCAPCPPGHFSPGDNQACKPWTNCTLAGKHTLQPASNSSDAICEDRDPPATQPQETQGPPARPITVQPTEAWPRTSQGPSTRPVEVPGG

[7] = target: T6, CD40 extracellular domain (TNFRSF5, Val18-Leu192) (UniProt P25942 18-192); experiment: as above
T6 construct: range 18-192; ECD cloned into pBadThioTopo; E. coli lysate on His capture plates

[8] = target: T7, FAS extracellular domain (TNFRSF6, Ser20-Gly175) (UniProt P25445 20-175); experiment: as above
T7 construct: ECD cloned into pBadThioTopo; E. coli lysate on His capture plates
T7 sequence (looked up): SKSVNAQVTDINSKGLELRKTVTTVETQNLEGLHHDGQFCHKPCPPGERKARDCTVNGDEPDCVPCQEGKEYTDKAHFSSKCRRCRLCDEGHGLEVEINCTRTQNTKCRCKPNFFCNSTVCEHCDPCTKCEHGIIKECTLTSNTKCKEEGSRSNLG

[9] = target: T8, DcR3 (TNFRSF6B, Val27-Ala176) (UniProt O95407 27-176); experiment: as above
T8 construct: range 27-176; ECD cloned into pBadThioTopo; E. coli lysate on His capture plates
T8 sequence (looked up): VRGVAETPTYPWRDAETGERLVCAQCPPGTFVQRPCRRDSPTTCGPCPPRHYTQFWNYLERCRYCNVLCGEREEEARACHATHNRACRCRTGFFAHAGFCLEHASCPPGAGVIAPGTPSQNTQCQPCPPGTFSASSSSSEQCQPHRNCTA

[10] = target: T9, CD27 extracellular domain (TNFRSF7, Thr21-Ser187) (UniProt P26842 21-187); experiment: as above
T9 construct: range 21-187; ECD cloned into pBadThioTopo; E. coli lysate on His capture plates

[11] = target: T10, CD137 extracellular domain (TNFRSF9, Glu19-Ile188) (UniProt Q07011 19-188); experiment: as above
T10 construct: range 19-188; ECD cloned into pBadThioTopo; E. coli lysate on His capture plates

[12] = target: T11, DcR2 extracellular domain (TNFRSF10D, Thr57-Thr198) (UniProt Q9UBN6 57-198); experiment: as above
T11 construct: range 57-198; ECD cloned into pBadThioTopo; E. coli lysate on His capture plates
T11 sequence (looked up): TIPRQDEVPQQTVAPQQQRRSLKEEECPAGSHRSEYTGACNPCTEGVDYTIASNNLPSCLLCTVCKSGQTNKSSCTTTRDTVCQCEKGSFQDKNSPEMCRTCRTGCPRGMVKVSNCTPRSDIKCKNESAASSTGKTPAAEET

[13] = target: T12, OPG (TNFRSF11B, Lys17-Ile197) (UniProt O00300 17-197); experiment: as above
T12 construct: range 17-197; ECD cloned into pBadThioTopo; E. coli lysate on His capture plates
T12 sequence (looked up): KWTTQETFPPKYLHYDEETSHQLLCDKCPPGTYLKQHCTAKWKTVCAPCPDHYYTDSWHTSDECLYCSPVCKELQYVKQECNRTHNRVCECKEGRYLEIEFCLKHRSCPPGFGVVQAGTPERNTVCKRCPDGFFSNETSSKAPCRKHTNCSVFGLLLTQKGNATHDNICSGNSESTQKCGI

[14] = target: T13, BAFFR extracellular domain (TNFRSF13C, Met1-Gly64) (UniProt Q96RJ3 1-64); experiment: as above
T13 construct: range 1-64; ECD cloned into pBadThioTopo; E. coli lysate on His capture plates

[15] = target: T1, cell-bound human DR5 (Colo205 and other …); experiment: FACS, periplasmic extract on Colo205 cells, anti-myc detection
[16] = target: T14, cynomolgus DR5-Fc fusion protein (cyno DR5 amino acids 56 to 213 fused with human IgG1 Fc) (cynomolgus; human); experiment: SPR (Biacore), CM5 chip coated with cynomolgus DR5-Fc, 1 to 100 nM NB construct
[17] = target: T14, cynomolgus DR5-Fc fusion protein (cyno …); experiment: ELISA, periplasmic extract, plate coated with cynomolgus DR5-Fc, anti-myc detection
[18] = target: T15, cell-bound cynomolgus DR5 (CHO-K1 cells transfected with the full length cynoDR5 gene) (cynomolgus); experiment: FACS, periplasmic extract on CHO-K1 cells expressing cynomolgus DR5, anti-myc detection
T15 construct: whole, on cells

[19] = target: cynomolgus DR5 (construct used not stated) (cynomolgus); experiment: SPR kinetics (Biacore), cynomolgus DR5
[20] = target: T15, cell-bound cynomolgus DR5 (CHO-K1 cells …); experiment: FACS saturation binding, apparent KD, cell-bound cynomolgus DR5

T6 sequence (P25942 18-192 limits assumed): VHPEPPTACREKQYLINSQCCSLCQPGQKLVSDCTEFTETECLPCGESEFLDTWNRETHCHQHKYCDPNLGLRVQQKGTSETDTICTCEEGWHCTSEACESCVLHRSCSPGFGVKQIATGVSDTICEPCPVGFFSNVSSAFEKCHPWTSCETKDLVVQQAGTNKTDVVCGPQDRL
T13 sequence (Q96RJ3 1-64 limits assumed): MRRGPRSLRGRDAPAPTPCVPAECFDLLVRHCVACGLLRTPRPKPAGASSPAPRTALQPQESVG
T10 sequence (Q07011 19-188 limits assumed): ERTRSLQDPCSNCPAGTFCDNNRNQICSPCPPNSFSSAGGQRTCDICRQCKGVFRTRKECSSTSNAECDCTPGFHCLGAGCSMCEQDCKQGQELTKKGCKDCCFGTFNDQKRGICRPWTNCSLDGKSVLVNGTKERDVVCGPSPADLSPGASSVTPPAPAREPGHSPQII
T9 sequence (P26842 21-187 limits assumed): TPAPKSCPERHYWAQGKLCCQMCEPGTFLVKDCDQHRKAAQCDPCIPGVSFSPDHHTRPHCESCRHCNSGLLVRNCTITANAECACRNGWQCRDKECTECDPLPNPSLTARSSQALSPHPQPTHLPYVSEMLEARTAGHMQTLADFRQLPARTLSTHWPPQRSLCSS
T4 sequence (P36941 30-224 limits assumed): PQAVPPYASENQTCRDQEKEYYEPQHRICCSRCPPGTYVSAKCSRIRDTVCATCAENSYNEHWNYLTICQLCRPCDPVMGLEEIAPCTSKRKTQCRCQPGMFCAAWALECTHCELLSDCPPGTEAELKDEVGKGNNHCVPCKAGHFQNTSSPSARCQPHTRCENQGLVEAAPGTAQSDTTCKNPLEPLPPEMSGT

B1: 7A12 tetra (tetravalent anti-DR5 NB construct) (other)
chain: EVQLVESGGGLVQAGGSLRLSCAASGRTFSNYAMGWFRQAPGKEREFVAALNWSGGSTYYVDSVKGRFTISRDNAKNTVYLQMNSLKPEDTAVYYCAAAGSFSLGGRPYGDDYWGKGTLVTVSSGGGGSGGGGSGGGGSGGGGSGGGGSGGGGSGGGGSEVQLVESGGGLVQAGGSLRLSCAASGRTFSNYAMGWFRQAPGKEREFVAALNWSGGSTYYVDSVKGRFTISRDNAKNTVYLQMNSLKPEDTAVYYCAAAGSFSLGGRPYGDDYWGKGTLVTVSSGGGGSGGGGSGGGGSGGGGSGGGGSGGGGSGGGGSEVQLVESGGGLVQAGGSLRLSCAASGRTFSNYAMGWFRQAPGKEREFVAALNWSGGSTYYVDSVKGRFTISRDNAKNTVYLQMNSLKPEDTAVYYCAAAGSFSLGGRPYGDDYWGKGTLVTVSSGGGGSGGGGSGGGGSGGGGSGGGGSGGGGSGGGGSEVQLVESGGGLVQAGGSLRLSCAASGRTFSNYAMGWFRQAPGKEREFVAALNWSGGSTYYVDSVKGRFTISRDNAKNTVYLQMNSLKPEDTAVYYCAAAGSFSLGGRPYGDDYWGKGTLVTVSS
notes: four VHH units in one chain joined by GlySer linkers; not shown: C-terminal c-myc/His6 tag from vector pAX51
[1]
  IC50, cell survival, 184A1: ≥ 20 nM
  IC50, cell survival, A549: ≥ 20 nM
  IC50, cell survival, ARPE-19: ≥ 20 nM
  IC50, cell survival, BxPC-3: 0.023 nM
  IC50, cell survival, Colo205: 0.0066 nM
  IC50, cell survival, H226: ≥ 20 nM
  IC50, cell survival, H2052: 0.033 nM
  IC50, cell survival, H2122: 0.0036 nM
  IC50, cell survival, HAAE-1: ≥ 20 nM
  IC50, cell survival, Huvec: ≥ 20 nM
  IC50, cell survival, Jurkat: 0.037 nM
  IC50, cell survival, M30: ≥ 20 nM
  IC50, cell survival, Malme-3: ≥ 20 nM
  IC50, cell survival, MiaPaCa-2: 0.041 nM
  IC50, cell survival, Molt4: ≥ 20 nM
  IC50, cell survival, Panc-1: ≥ 20 nM
  IC50, cell survival, WI-38: ≥ 20 nM
[2]
  EC50, caspase 3/7 in Colo205 tumor after a single dose in mice, indirect response model: 1.41 ng/mg tissue
[3]
  binding result: no binding (tested: not stated)
[4]
  binding result: no binding (tested: not stated)
[5]
  binding result: no binding (tested: not stated)
[6]
  binding result: no binding (tested: not stated)
[7]
  binding result: no binding (tested: not stated)
[8]
  binding result: no binding (tested: not stated)
[9]
  binding result: no binding (tested: not stated)
[10]
  binding result: no binding (tested: not stated)
[11]
  binding result: no binding (tested: not stated)
[12]
  binding result: no binding (tested: not stated)
[13]
  binding result: no binding (tested: not stated)
[14]
  binding result: no binding (tested: not stated)

B2: 10F1 (monomeric anti-DR5 NB construct) (VHH)
VHH: EVQLVESGGGLVQPGGSLRLSCAASGFTFSRYWMYWVRQAPGKGLEWVSAINSGGGDTYYRDSVRGRFTISRDNFKNTLYLQMNSLKSEDTAVYYCAKAEGPPTFSLIRTMTVDPGAQGTQVTVSS
notes: llama VHH; periplasmic extract or purified monovalent material from E. coli; not shown: C-terminal c-myc tag and (His)6 tag coded by the vector
[15]
  mean count fluorescence: 125
[16]
  Kd: 140 nM
[17]
  ABS405 nm: 0.124 ABS405 nm
[18]
  mean count fluorescence: 1630

B3: 4E6 (monomeric anti-DR5 NB construct) (VHH)
VHH: EVQLVESGGGSVQAGDSLRLSCAASGRTFGSIRVGWFRQTPGKEREFVAAINRNDGTTYYADSVKGRFTISRDNAKNTVYMQMASLKPEDTAVYYCAAGLQYNRSADRVPVGAVYWGQGTQVTVSS
notes: llama VHH; periplasmic extract or purified monovalent material from E. coli; also called 4E6 parent; wild type 4E6; not shown: C-terminal c-myc tag and (His)6 tag coded by the vector
[19]
  Kd: 5.5 nM
[15]
  mean count fluorescence: 972
[20]
  Kd: 7.3 nM
[16]
  Kd: 16 nM
[17]
  ABS405 nm: 0.313 ABS405 nm
[18]
  mean count fluorescence: 2870

B4: 4E6-Hu (monovalent humanized, N-glycosylation knock-out variant of 4E6) (VHH)
VHH: EVQLLESGGGLVQPGGSLRLSCAASGRTFGSIRVGWFRQAPGKGREFVSAINRNDGTTYYADSVKGRFTISRDNSKNTVYLQMNSLRPEDTAVYYCAAGLQYNRAADRVPVGAVYWGQGTLVTVSS
notes: produced in E. coli and purified
[19]
  Kd: 1.6 nM
[20]
  Kd: 8.8 nM

B5: 7A12 (monomeric anti-DR5 NB construct) (VHH)
VHH: EVQLVESGGGLVQAGGSLRLSCAASGRTFSNYAMGWFRQAPGKEREFVAALNWSGGSTYYVDSVKGRFTISRDNAKNTVYLQMNSLKPEDTAVYYCAAAGSFSLGGRPYGDDYWGKGTLVTVSS
notes: as for B2
[15]
  mean count fluorescence: 1100
[16]
  Kd: 7.1 nM
[17]
  ABS405 nm: 0.341 ABS405 nm
[18]
  mean count fluorescence: 24500

B6: 11D1 (monomeric anti-DR5 NB construct) (VHH)
VHH: EVQLVESGGGLVQPGGSLRLSCAASGSIDSINNMGWYRQAPGKQRELVAEITPRGRTNYADSEKSRFTISRDNAKRTVNLQMNSLKPEDTAVYYCNAEVRERGTSWYRPDYWGQGTQVTVSS
notes: as for B2
[15]
  mean count fluorescence: 919
[16]
  Kd: 220 nM
[17]
  ABS405 nm: 0.213 ABS405 nm
[18]
  mean count fluorescence: 417

Reference: patent US20150259426A1 (Novartis, published 2015)
